Test results taken from US10377811B2, “Peptides, combination of peptides as targets and for use in immunotherapy against gallbladder cancer and cholangiocarcinoma and other cancers” (Immatics biotechnologies GmbH, priority 2016, dated 2019).

Assays:
HLA-A*02:01 = HLA-A*02:01 (Homo sapiens, UniProt P04439, D140Y/D185E/D98H/E176V/E277Q/G131W/G231S/I119V/I121R/I166T/I218V/L300P/L318F/N151K/N90K/P208A/P217A/Q86G/Q94H/R138H/R169H/T345S); assay: MHC binding assay (UV-ligand exchange, β2m ELISA); settings: peptide exchange yield
Description: Candidate peptides for T cell based therapies according to the present invention were further tested for their MHC binding capacity (affinity). The individual peptide-MHC complexes were produced by UV-ligand exchange, where a UV-sensitive peptide is cleaved upon UV-irradiation, and exchanged with the peptide of interest as analyzed. Only peptide candidates that can effectively bind and stabilize the peptide-receptive MHC molecules prevent dissociation of the MHC complexes. To determine the yield of the exchange reaction, an ELISA was performed based on the detection of the light chain (β2m) of stabilized MHC complexes. The assay was performed as generally described in Rodenko et al. (Rodenko et al., 2006).
96 well MAXISorp plates (NUNC) were coated over night with 2 ug/ml streptavidin in PBS at room temperature, washed 4× and blocked for 1 h at 37° C. in 2% BSA containing blocking buffer. Refolded HLA-A*02:01/MLA-001 monomers served as standards, covering the range of 15-500 ng/ml. Peptide-MHC monomers of the UV-exchange reaction were diluted 100-fold in blocking buffer. Samples were incubated for 1 h at 37° C., washed four times, incubated with 2 ug/ml HRP conjugated anti-β2 m for 1 h at 37° C., washed again and detected with TMB solution that is stopped with […]. Absorption was measured at 450 nm. Candidate peptides that show a high exchange yield (preferably higher than 50%, most preferred higher than 75%) are generally preferred for a generation and production of antibodies or fragments thereof, and/or T cell receptors or fragments thereof, as they show sufficient avidity to the MHC molecules and prevent dissociation of the MHC complexes.

[1] = system: CD8+ T cells of healthy HLA-A*02 donors; assay: In vitro T-cell priming immunogenicity assay with aAPCs loaded with peptide/MHC complexes and anti-CD28 antibody, multimer readout; format: cell-based, human; settings: for wells (in vitro immunogenicity): HLA class I peptides, Table 10A; for Wells positive [%]: HLA-A*02 restricted peptides, percentage of positive wells among evaluable, Table 10B
Description: In order to obtain information regarding the immunogenicity of the TUMAPs of the present invention, the inventors performed investigations using an in vitro T-cell priming assay based on repeated stimulations of CD8+ T cells with artificial antigen presenting cells (aAPCs) loaded with peptide/MHC complexes and anti-CD28 antibody.
In order to perform in vitro stimulations by artificial antigen presenting cells loaded with peptide-MHC complex (pMHC) and anti-CD28 antibody, the inventors first isolated CD8+ T cells from fresh HLA-A*02 leukapheresis products via positive selection using CD8 microbeads (Miltenyi Biotec, Bergisch-Gladbach, Germany) of healthy donors obtained from the University clinics Mannheim, Germany, after informed consent.
PBMCs and isolated CD8+ lymphocytes were incubated in T-cell medium (TCM) until use consisting of RPMI-Glutamax (Invitrogen, Karlsruhe, Germany) supplemented with 10% heat inactivated human AB serum (PAN-Biotech, Aidenbach, Germany), 100 U/ml Penicillin/100 μg/ml Streptomycin (Cambrex, Cologne, Germany), 1 mM sodium pyruvate (CC Pro, Oberdorla, Germany), 20 μg/ml Gentamycin (Cambrex). 2.5 ng/ml IL-7 (PromoCell, Heidelberg, Germany) and 10 U/ml IL-2 (Novartis Pharma, Nürnberg, Germany) were also added to the TCM at this step.
Generation of pMHC/anti-CD28 coated beads, T-cell stimulations and readout was performed in a highly defined in vitro system using four different pMHC molecules per stimulation condition and 8 different pMHC molecules per readout condition.
The purified co-stimulatory mouse IgG2a anti human CD28 Ab 9.3 (Jung et al., 1987) was chemically biotinylated using Sulfo-N-hydroxysuccinimidobiotin as recommended by the manufacturer (Perbio, Bonn, Germany). Beads used were 5.6 μm diameter streptavidin coated polystyrene particles (Bangs Laboratories, Ill., USA).
800.000 beads/200 μl were coated in 96-well plates in the presence of 4×12.5 ng different biotin-pMHC, washed and 600 ng biotin anti-CD28 were added subsequently in a volume of 200 μl. Stimulations were initiated in 96-well plates by co-incubating […] CD8+ T cells with 2×10^5 washed coated beads in 200 μl TCM supplemented with 5 ng/ml IL-12 (PromoCell) for 3 days at 37° C. Half of the medium was then exchanged by fresh TCM supplemented with 80 U/ml IL-2 and incubating was continued for 4 days at 37° C. This stimulation cycle was performed for a total of three times. For the pMHC multimer readout using 8 different pMHC molecules per condition, a two-dimensional combinatorial coding approach was used as previously described (Andersen et al., 2012) with minor modifications encompassing coupling to 5 different fluorochromes. Finally, multimeric analyses were performed by staining the cells with Live/dead near IR dye (Invitrogen, Karlsruhe, Germany), CD8-FITC antibody clone SK1 (BD, Heidelberg, Germany) and fluorescent pMHC multimers. For analysis, a BD LSRII SORP cytometer equipped with appropriate lasers and filters was used. Peptide specific cells were calculated as percentage of total CD8+ cells. Evaluation of multimeric analysis was done using the FlowJo software (Tree Star, Oreg., USA). In vitro priming of specific multimer+ CD8+ lymphocytes was detected by comparing to negative control stimulations.

Row | Peptide exchange (MHC class I binding score) (HLA-A*02:01) | Substance | wells (in vitro immunogenicity) [1] | Wells positive [%] [1]
1 | ++ (>20% = ++) | 10 (SAFPFPVTVSL; listed as Homo sapiens) [compound 10] |  | 
2 | ++++ (>75% = ++++) | 17 (VLYDNTQLQL; listed as Homo sapiens) [compound 17] |  | 
3 | + (>10% = +) | 26 (TAQTLVRIL; listed as Homo sapiens) [compound 26] |  | 
4 | +++ (>50 = +++) | 2 (AAYPEIVAV; listed as Homo sapiens) [compound 2] |  | 
5 | ++++ (>75% = ++++) | 9 (RLAKLTAAV; listed as Homo sapiens) [compound 9] |  | 
6 | ++++ (>75% = ++++) | 14 (YGIEFVVGV; listed as Homo sapiens) [compound 14] |  | 
7 |  | 38 (KIQEILTQV; listed as Homo sapiens) [compound 38] | ++ (20%-49% = ++) | 
8 | +++ (>50 = +++) | 30 (FASGLIHRV; listed as Homo sapiens) [compound 30] |  | 
9 | ++++ (>75% = ++++) | 23 (SLLSELLGV; listed as Homo sapiens) [compound 23] |  | 
10 | ++++ (>75% = ++++) | 11 (SIIDFTVTM; listed as Homo sapiens) [compound 11] |  | 
11 |  | 34 (LLWGNLPEI; listed as Homo sapiens) [compound 34] | ++ (20%-49% = ++) | 
12 | ++++ (>75% = ++++) | 29 (FASEVSNVL; listed as Homo sapiens) [compound 29] |  | 
13 | + (>10% = +) | 8 (LSASLVRIL; listed as Homo sapiens) [compound 8] |  | 
14 | ++++ (>75% = ++++) | 6 (LLLPLLPPLSPS; listed as Homo sapiens) [compound 6] |  | + (<20% = +)
15 | +++ (>50 = +++) | 18 (SLSPDLSQV; listed as Homo sapiens) [compound 18] |  | 
16 | ++++ (>75% = ++++) | 20 (VLQDELPQL; listed as Homo sapiens) [compound 20] |  | 
17 |  | 33 (ILGTEDLIVEV; listed as Homo sapiens) [compound 33] | ++ (20%-49% = ++) | 
18 | +++ (>50 = +++) | 27 (ALAEQVQKA; listed as Homo sapiens) [compound 27] |  | 
19 | ++++ (>75% = ++++) | 15 (SVIDSLPEI; listed as Homo sapiens) [compound 15] |  | 

Row | Peptide exchange (MHC class I binding score) (HLA-A*02:01) | Substance | wells (in vitro immunogenicity) [1] | Wells positive [%] [1]
20 |  | 36 (ILVDWLVQV; listed as Homo sapiens) [compound 36] | ++ (20%-49% = ++) | 
21 | ++++ (>75% = ++++) | 25 (NLSETASTMAL; listed as Homo sapiens) [compound 25] |  | ++ (20%-49% = ++)
22 | ++++ (>75% = ++++) | 5 (GLIDEVMVLL; listed as Homo sapiens) [compound 5] |  | 
23 | ++ (>20% = ++) | 22 (SAFGFPVIL; listed as Homo sapiens) [compound 22] |  | 
24 | + (>10% = +) | 24 (ISAPLVKTL; listed as Homo sapiens) [compound 24] |  | 
25 | ++++ (>75% = ++++) | 32 (YVISQVFEI; listed as Homo sapiens) [compound 32] |  | 
26 | ++++ (>75% = ++++) | 16 (AVMTDLPVI; listed as Homo sapiens) [compound 16] |  | + (<20% = +)
27 | +++ (>50 = +++) | 21 (IAFPTSISV; listed as Homo sapiens) [compound 21] |  | 
28 | + (>10% = +) | 12 (TILPGNLQSW; listed as Homo sapiens) [compound 12] |  | 
29 | ++++ (>75% = ++++) | 4 (FLLEAQNYL; listed as Homo sapiens) [compound 4] |  | 
30 | ++++ (>75% = ++++) | 31 (IAIPFLIKL; listed as Homo sapiens) [compound 31] |  | 
31 | ++++ (>75% = ++++) | 7 (LLLSDPDKVTI; listed as Homo sapiens) [compound 7] |  | 
32 | ++ (>20% = ++) | 19 (TAYPQVVVV; listed as Homo sapiens) [compound 19] |  | 
33 | + (>10% = +) | 28 (YASGSSASL; listed as Homo sapiens) [compound 28] |  | 
34 | +++ (>50 = +++) | 3 (EMDSTVITV; listed as Homo sapiens) [compound 3] |  | 
35 | +++ (>50 = +++) | 1 (YAAEIASAL; listed as Homo sapiens) [compound 1] |  | 
36 | ++++ (>75% = ++++) | 13 (VLPRAFTYV; listed as Homo sapiens) [compound 13] |  | ++++ (> = 70% = ++++)
37 |  | 35 (GLIDEVMVL; listed as Homo sapiens) [compound 35] | ++ (20%-49% = ++) | 
